The IC50 is the concentration needed to halve the response being measured. The term Kd denotes a measure of binding affinity in units of concentration. Lower therefore signals tighter binding. The term EC50 denotes the concentration needed to bring the measured effect to its halfway point.

Assay [1] has as its target T1, recombinant PD-1 extracellular domain Fc fusion protein (PD-1 Fc) (human, biotin label (sites not given) in the ELISA binding assay; unlabelled when coated in the ligand blocking assay).
T1 construct: also called human PD-1Fc; human PD-1
Kind of assay: ligand binding blocking ELISA as in Example 2, competitor biotin-labeled PD-L1. The procedure: In this experiment, a 96-well plate was coated with a PD-1 protein with the extracellular domain fused with FC (PD-1-FC), and incubated with the test PD-1 antibody; later biotin-labeled PD-L1 was added for incubation. After washing the plate, the binding amount of biotin-labeled PD-L1 was detected; the blocking IC₅₀ value of PD-1 antibody for ligand PD-L1 binding was calculated.
PD-1-FC was diluted to 1 μg/ml with PH 9.6 CB buffer (1.59 g Na₂CO₃ and 2.93 g NaHCO₃ were dissolved in 1 L of distilled water), pipetted into a 96-well plate at 100 μl/well and standed for 16 h-20 h at 4° C. The 96-well plate was washed once with PBST (PH7.4 PBS, containing 0.05% tweeen20) after PBS buffer was removed, then the plate was incubated and blocked for 1 h at room temperature with 120 μl/well PBST/1% milk. After removal of the blocking solution, the plate was washed with PBST buffer once, followed by addition of 90 μl of test PD-1 antibody which was diluted to a suitable concentration with sample diluents (PH7.4 PBS containing 5% BSA, 0.05% Tween20), and incubated for 1 h at 4° C. Then 10× concentrations of biotin-labeled PD-L1 (Beijing Sino Biological Inc.) (10 μg/ml) was added to the plate at 10 μl/well, oscillated and mixed by an oscillator, and incubated at 37° C. for 1 h. After removal of the reaction system, the plate was washed for 6 times with PBST buffer, followed by addition of 100 ul/well Streptavidin-Peroxidase Polymer which was diluted by PBST at a ratio of 1:400, and incubated under oscillation for 50 min at room temperature. After being washed with PBST for 6 times, the plate was added with 100 μl/well TMB, and incubated for 5-10 min at room temperature. Then the reaction was terminated with addition of 100 μl/well 1M H₂SO₄. The absorbance value at 450 nm was read on the NOVOStar microplate reader; the blocking IC₅₀ value of PD-1 for ligand PD-L1 binding was calculated.
(§1) Humanized antibodies were subjected to ELISA binding assay (method is the same as that of Example 2), ligand binding blocking assay (method is the same as that of Example 2), and affinity kinetics experiment (method is the same as that of Example 5) in vitro.
(In an ELISA, binding on a coated surface is turned into a signal by an enzyme label.)

The target of assay [2] is T2, PD-1 His protein (Beijing Sino Biological Inc.) (UniProt Q15116 25-167, limits assumed).
T2 construct: Bought reagent, analyte in the Biacore assay; not shown: His tag
Put plainly: Biacore SPR as in Example 5, PD-1 His as analyte. The procedure: According to the instruction of a kit provided by Biacore, the test PD-1 antibody of the present invention was covalently linked to CM5 (GE) chip using a standard amino coupling method. Then a series of gradient concentrations of PD-1 His protein (Beijing Sino Biological Inc.), which were diluted in the same buffer, were loaded into each cycle successively. After that, the samples were regenerated with regenerated reagent in the kit. The antigen-antibody binding kinetics was tracked for 3 minutes and the dissociation kinetics was tracked for 10 minutes. The data obtained was analyzed by GE's BIAevaluation software using 1:1 (Langmuir) binding model.
as §1

The target of assay [3] is T1, recombinant PD-1 extracellular domain …. Kind of assay: ELISA as in Example 2, biotinylated PD-1 Fc captured on avidin. As for the experimental part:
The PD-1 antibody blocks signaling pathway of PD-1 and its ligand by binding to PD-1 extracellular domain. In vitro ELISA assay is used to detect the binding property of the PD-1 antibody. Biotinylated PD-1 extracellular domain FC fusion protein (PD-1 FC) is coated onto 96-well plates by binding to neutralization avidin. Signal intensity after the addition of the antibody is used to determine the binding property of the antibody and PD-1.
Neutralization avidin (binding to biotin) was diluted to 1 μl/ml with PBS buffer, pipetted into a 96-well plate with at 100 μl/well and standed for 16 h-20 h at 4° C. The 96-well plate was washed once with PBST (PH7.4 PBS, containing 0.05% tweeen20) after PBS buffer was removed, then the plate was incubated and blocked for 1 h at room temperature with addition of 120 μl/well PBST/1% milk. After removal of the blocking solution, the plate was washed with PBST buffer, followed by addition of 1 μg/ml biotin-labeled PD1-FC which was diluted by PBST/1% milk, and incubated for 1 h at room temperature. After removal of the blocking solution, the plate was washed with PBST buffer for 3 times, followed by addition of the test PD-1 antibody which was diluted to a suitable concentration by PBST/1% milk, and incubated for 1.5 h at room temperature. After removal of reaction system, the plate was washed for 3 times with PBST buffer, followed by addition of 100 μl/well HRP-labeled anti-murine secondary antibody (The Jackson Laboratory) which was diluted by PBST/1% milk, and incubated for 1 h at room temperature. After being washed with PBST for three times, the plate was added with 100 μl/well TMB, and incubated for 5-10 min at room temperature. Then the reaction was terminated with addition of 100μ/well 1M H₂SO₄. The absorbance value at 450 nm was read on NOVOStar microplate reader; the ELISA binding EC₅₀ value was calculated.
as §1

B1: humanized antibody H005-1 (antibody, human IgG4 S228P, kappa, F234A L235A, V domains shown)
VH: EVQLVESGGGLVQPGGSLRLSCAASGFTFSSYMMSWVRQAPGKGLEWVATISGGGANTYYPDSVKGRFTISRDNAKNSLYLQMNSLRAEDTAVYYCARQLYYFDYWGQGTTVTVSS
VL: DIQMTQSPSSLSASVGDRVTITCLASQTIGTWLTWYQQKPGKAPKLLIYTATSLADGVPSRFSGSGSGTDFTLTISSLQPEDFATYYCQQVYSIPWTFGGGTKVEIKR
notes: CDR graft of mAb005 on IgHV3-7/JH6 and IGKV1-39/JK4, IgG4 constant region; expressed in HEK293 cells; also called PD-1 antibody H005-1
Regarding B1, the IC50 in assay [1] came out at 1.27 nM. The same molecule displayed a Kd in assay [2] of 2.79 nM. For the same molecule, in assay [3], the EC50 was 0.11 nM.

B2: humanized antibody H005-3 (antibody, human IgG4 S228P, kappa, F234A L235A, name in Kabat numbering, V domains shown)
VH: EVQLVESGGGLVQPGGSLRLSCAASGFTFSSYMMSWVRQAPGKGLEWVATISGGGANTYYPDSVKGRFTISRDNAKNSLYLQMNSLRAEDTAVYYCARQLYYFDYWGQGTTVTVSS
VL: DIQMTQSPSSLSASVGDRVTITCLASQTIGTWLTWYQQKPGKSPKLLIYTATSLADGVPSRFSGSGSGTDFTLTISSLQPEDFATYYCQQVYSIPWTFGGGTKVEIKR
notes: Back-mutated variant of H005-1, IgG4 constant region
As for B2, the IC50 in assay [1] is 1.33 nM. This molecule displayed a dissociation constant (Kd) in assay [2] of 2.45 nM. In assay [3], the concentration giving a half-maximal response (EC50) is 0.15 nM.

B3: humanized antibody H005-2 (antibody, human IgG4 S228P, kappa, F234A L235A, name in Kabat numbering, V domains shown)
VH: EVQLVESGGGLVQPGGSLRLSCAASGFTFSSYMMSWVRQAPGKRLEWVATISGGGANTYYPDSVKGRFTISRDNAKNSLYLQMNSLRAEDTAVYYCARQLYYFDYWGQGTTVTVSS
VL: DIQMTQSPSSLSASVGDRVTITCLASQTIGTWLTWYQQKPGKAPKLLIYTATSLADGVPSRFSGSGSGTDFTLTISSLQPEDFATYYCQQVYSIPWTFGGGTKVEIKR
notes: as for B2
Consider B3, for which the IC50 in assay [1] is 1.27 nM. Also, the Kd in assay [2] came to 2.98 nM. For the same molecule, the EC50 in assay [3] is 0.14 nM.

B4: humanized antibody H005-4 (antibody, human IgG4 S228P, kappa, F234A L235A, name in Kabat numbering, V domains shown)
VH: EVQLVESGGGLVQPGGSLRLSCAASGFTFSSYMMSWVRQAPGKRLEWVATISGGGANTYYPDSVKGRFTISRDNAKNSLYLQMNSLRAEDTAVYYCARQLYYFDYWGQGTTVTVSS
VL: DIQMTQSPSSLSASVGDRVTITCLASQTIGTWLTWYQQKPGKSPKLLIYTATSLADGVPSRFSGSGSGTDFTLTISSLQPEDFATYYCQQVYSIPWTFGGGTKVEIKR
notes: as for B2
In the case of B4, the IC50 in assay [1] was found to be 1.36 nM. The same molecule registered a Kd in assay [2] of 3.89 nM. In assay [3], the EC50 came to 0.14 nM.

For the origin of these results see US20190309069A1 (SHANGHAI HENGRUI PHARMACEUTICAL, published 2019).
